Reference: article doi:10.1101/156513 (bioRxiv, 2017)

T1: GST-ZPSG-1 (UniProt Q07157 417-806)
T1 sequence: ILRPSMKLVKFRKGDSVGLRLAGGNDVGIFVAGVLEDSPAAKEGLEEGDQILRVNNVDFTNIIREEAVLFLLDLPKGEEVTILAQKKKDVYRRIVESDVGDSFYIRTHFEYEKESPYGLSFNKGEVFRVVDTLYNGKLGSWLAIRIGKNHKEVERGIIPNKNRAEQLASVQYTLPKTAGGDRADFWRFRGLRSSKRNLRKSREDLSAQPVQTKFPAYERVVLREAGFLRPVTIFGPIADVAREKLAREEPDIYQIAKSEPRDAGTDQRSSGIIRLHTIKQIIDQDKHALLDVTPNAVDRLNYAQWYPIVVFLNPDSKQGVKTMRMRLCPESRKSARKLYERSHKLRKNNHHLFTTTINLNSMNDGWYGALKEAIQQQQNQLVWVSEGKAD


Biological target: T1, GST-ZPSG-1
Test: supernatant depletion assay

| Binder | Kd [µM] |
| --- | --- |
| GFP-tagged C-terminal ZO-1 fragment (GFP-ZO-1-1619-1748) (domain or fragment) SAVEEDEDEDGHTVVATARGIFNSNGGVLSSIETGVSIIIPQGAIPEGVEQEIYFKVCRDNSILPPLDKEKGETLLSPLVMCGPHGLKFLKPVELRLPHCDPKTWQNKCLPGDPNYLVGANCVSVLIDHF | 0.066 |
| HA-DbpA (natural protein) not shown | 0.1 |
